In article PMC12501420, “Small DUF1127 proteins regulate bacterial phosphate metabolism through protein–protein interactions with the sensor kinase PhoR” (microLife, 2025):

Target: T1, Strep-PhoR, sensor kinase PhoR from E. coli, purified (E. coli, UniProt P08400 1-431)
T1 construct: sensor kinase PhoR of Escherichia coli; one of 'both Strep-PhoR proteins' of the methods; also called E. coli PhoR; source: E. coli BL21, purified (membranes solubilised with Triton X-100, Strep-Tactin)
T1 sequence (looked up): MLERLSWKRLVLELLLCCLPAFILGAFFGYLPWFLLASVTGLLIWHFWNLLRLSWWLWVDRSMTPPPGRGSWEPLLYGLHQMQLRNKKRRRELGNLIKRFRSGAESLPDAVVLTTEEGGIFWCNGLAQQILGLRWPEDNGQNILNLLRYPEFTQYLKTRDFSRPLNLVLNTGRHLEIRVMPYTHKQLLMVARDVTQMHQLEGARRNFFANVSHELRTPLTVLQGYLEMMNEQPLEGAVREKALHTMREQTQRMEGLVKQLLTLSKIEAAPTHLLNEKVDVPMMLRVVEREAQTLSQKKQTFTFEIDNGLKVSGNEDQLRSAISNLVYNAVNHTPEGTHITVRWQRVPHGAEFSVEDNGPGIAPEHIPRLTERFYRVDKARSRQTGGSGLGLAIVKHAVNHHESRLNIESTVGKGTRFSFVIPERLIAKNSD
Test: far-Western, overlay or dot blot; Far-Western dot blot: Strep-tagged bait proteins spotted on a nitrocellulose membrane, incubated with His-SUMO-tagged DUF1127 protein, detected with anti-His antibody; EveryBlot blocking buffer, PBST washes (for E. coli PhoR and YjiS, Fig. 8B, it is not told who was spotted)
Conditions: both partners purified

B1: YjiS from E. coli, purified (natural protein, UniProt P39390 1-54, looked up)
chain: MEFHENRAKAPFIGLVQLWQAVRRWRRQMQTRRVLQQMSDERLKDIGLRREDVE
notes: YjiS, the sole DUF1127 protein of Escherichia coli, a 54-amino acid protein; also called E. coli YjiS
- binding result: binds
